T1: Flag-CBFβ I55D–F68D (UniProt Q13951 1-170, I55D | F68D)
T1 construct: source: 293T, transfected, in lysate
T1 sequence: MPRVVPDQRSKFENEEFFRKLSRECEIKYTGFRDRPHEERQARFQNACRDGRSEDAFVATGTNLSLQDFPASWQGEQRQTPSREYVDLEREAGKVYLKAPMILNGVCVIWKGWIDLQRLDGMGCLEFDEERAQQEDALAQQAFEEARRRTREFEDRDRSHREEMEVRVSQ

T2: Flag-CBFβ F68D (UniProt Q13951 1-170, F68D)
T2 construct: source: 293T, transfected, in lysate
T2 sequence: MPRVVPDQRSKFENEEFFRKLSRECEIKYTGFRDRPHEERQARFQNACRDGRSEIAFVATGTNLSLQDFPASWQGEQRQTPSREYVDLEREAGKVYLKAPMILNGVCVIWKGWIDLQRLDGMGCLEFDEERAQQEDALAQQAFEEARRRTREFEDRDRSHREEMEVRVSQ

T3: Flag-CBFβ I55A–F68D (UniProt Q13951 1-170, I55A | F68D)
T3 construct: source: 293T, transfected, in lysate
T3 sequence: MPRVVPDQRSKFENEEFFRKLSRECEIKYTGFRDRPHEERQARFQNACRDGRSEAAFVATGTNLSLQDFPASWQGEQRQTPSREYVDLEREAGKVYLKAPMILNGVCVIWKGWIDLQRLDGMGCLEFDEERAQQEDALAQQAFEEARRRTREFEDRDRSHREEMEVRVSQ

T4: Flag-CBFβ I55D (UniProt Q13951 1-170, I55D)
T4 construct: source: 293T, transfected, in lysate
T4 sequence: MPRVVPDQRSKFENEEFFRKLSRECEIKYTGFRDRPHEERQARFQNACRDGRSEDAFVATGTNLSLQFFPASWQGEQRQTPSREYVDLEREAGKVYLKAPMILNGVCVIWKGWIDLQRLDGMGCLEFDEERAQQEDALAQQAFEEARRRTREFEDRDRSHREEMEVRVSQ

T5: Flag-CBFβ (core-binding factor β), wild type (UniProt Q13951 1-170)
T5 sequence: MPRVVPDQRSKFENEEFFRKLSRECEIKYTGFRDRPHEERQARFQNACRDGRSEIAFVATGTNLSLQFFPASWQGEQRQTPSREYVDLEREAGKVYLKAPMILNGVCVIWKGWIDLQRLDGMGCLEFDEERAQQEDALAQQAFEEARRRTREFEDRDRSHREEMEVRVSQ


Columns and labels:
Flag-CBFβ I55D–F68D = molecular target: T1, Flag-CBFβ I55D–F68D; assay: co-IP; 293T cells co-transfected with Flag-CBFβ (4 μg) and untagged Vif (4 μg); lysates after 48 h; anti-Flag immunoprecipitation; co-precipitated Vif quantified by western blot (Odyssey) relative to wild type set to 100%; for the CBFβ mutants endogenous CBFβ was first knocked down by siRNA against the 3' UTR (Fig. 5, 7) and cells were treated with MG132 (5 μM, 16 h) in Fig. 7; settings: partners not purified
Flag-CBFβ F68D = molecular target: T2, Flag-CBFβ F68D; assay: as above; settings: partners not purified
Flag-CBFβ I55A–F68D = molecular target: T3, Flag-CBFβ I55A–F68D; assay: as above; settings: partners not purified
Flag-CBFβ I55D = molecular target: T4, Flag-CBFβ I55D; assay: as above; settings: partners not purified
[1] = molecular target: T5, Flag-CBFβ (core-binding factor β), wild …; assay: cell-based or functional assay
[2] = molecular target: T5, Flag-CBFβ (core-binding factor β), wild …; assay: co-IP; 293T cells co-transfected with Flag-CBFβ (4 μg) and untagged Vif (4 μg); lysates after 48 h; anti-Flag immunoprecipitation; co-precipitated Vif quantified by western blot (Odyssey) relative to wild type set to 100%; for the CBFβ mutants endogenous CBFβ was first knocked down by siRNA against the 3' UTR (Fig. 5, 7) and cells were treated with MG132 (5 μM, 16 h) in Fig. 7; settings: partners not purified

| Binder | infectivity of virus produced with A3G in CBFβ-depleted (siRNA) 293T cells, relative to WT Vif with control siRNA (100%) [1] [%] | binding efficiency relative to WT Vif (100%) [2] [%] | also measured |
| --- | --- | --- | --- |
| HIV-1 Vif, wild type (natural protein, HIV-1 Vif; Untagged; also called WT Vif; source: 293T, transfected, in lysate) not shown |  |  | binding efficiency relative to CBFβ-WT (100%) (Flag-CBFβ I55D–F68D): ~8%; binding efficiency relative to CBFβ-WT (100%) (Flag-CBFβ F68D): ~28%; binding efficiency relative to CBFβ-WT (100%) (Flag-CBFβ I55A–F68D): ~8%; binding efficiency relative to CBFβ-WT (100%) (Flag-CBFβ I55D): ~15% |
| HIV-1 Vif W11A (natural protein) not shown | 4 |  |  |
| HIV-1 Vif V7A–M8A (natural protein) not shown | 8 |  |  |
| HIV-1 Vif 9IVW11 > A3 (triple-alanine substitution mutant) (natural protein, HIV-1 Vif; Untagged; also called 9IVW11 > 3A; source: 293T, transfected, in lysate) not shown |  | 0.3 |  |
| HIV-1 Vif 5WQVM8 > A4 (quadruple-alanine substitution mutant) (natural protein, HIV-1 Vif; Untagged; also called 5WQVM8 > 4A; source: 293T, transfected, in lysate) not shown |  | 2 |  |
